# Measurements reported in article PMC2841689.
# Target: N74D HIV-1 CA-NC complexes (HIV-1)
# Test: co-sedimentation
substance,measurement,value
"human CPSF6-358 (C-terminally truncated CPSF6), HA-tagged (from UniProt Q16630-2 1-358) (domain or fragment)","fold difference in co-purification, wild-type over N74D CA-NC",3.9 fold
"rhesus TRIM5alpha, HA-tagged (from UniProt Q0PF16 1-497) (natural protein)",fold more precipitated than by wild-type CA-NC complexes,2 fold
